This note sets out measurements from patent US20060177932A1 (published 2006).

This series deals with the molecule itself. Kind of series: not described (homodimerisation stated in Example 7).

B1: STAT5A 1*7 (other)
chain: MAGWIQAQQLQGDALRQMQVLYGQHFPIEVRHYLAQWIESQPWDAIDLDNPQDRGQATQLLEGLVQELQKKAEHQVGEDGFLLKIKLGHYATQLQNTYDRCPMELVRCIRHILYNEQRLVREANNCSSPAGVLVDAMSQKHLQINQRFEGLRLITQDTENELKKLQQTQEYFIIQYQESLRIQAQFAQLGQLNPQERMSRETALQQKQVSLETWLQREAQTLQQYRVELAEKHQKTLQLLRKQQTIILDDELIQWKRRQQLAGNGGPPEGSLDVLQSWCEKLAEIIWQNRQQIRRAEHLCQQLPIPGPVEEMLAEVNATITDIISALVTSTFIIEKQPPQVLKTQTKFAATVRLLVGGKLNVHMNPPQVKATIISEQQAKSLLKNENTRNECSGEILNNCCVMEYHQATGTLSAHFRNMSLKRIKRADRRGAESVTEEKFTVLFESQFSVGSNELVFQVKTLSLPVVVIVHGSQDHNATATVLWDNAFAEPGRVPFAVPDKVLWPQLCEALNMKFKAEVQSNRGLTKENLVFLAQKLFNISSNHLEDYNSMSVSWSQFNRENLPGWNYTFWQWFDGVMEVLKKHHKPHWNDGAILGFVNKQQAHDLLINKPDGTFLLRFSDSEIGGITIAWKFDSPDRNLWNLKPFTTRDFSIRSLADRLGDLNYLIYVFPDRPKDEVFAKYYTPVLAKAVDGYVKPQIKQVVPEFVNAFTDAGASATYMDQAPSPVVCPQPHYNMYPPNPDPVLDQDGEFDLDESMDVARHVEELLRRPMDSLDARLSPPAGLFTSARSSLS
notes: Expressed from the retrovirus vector GCsam-IRES-EGFP; also called STAT5 1*7; active STAT5 variant
Turning to B1, the binding result is reported as “binds”.
